Results on three molecules are retold here after patent US20230212319A1, “NOVEL ANTIGEN BINDING DOMAINS AND SYNTHETIC ANTIGEN RECEPTORS INCORPORATING THE SAME” (University of Southern California, priority 2020, published 2023).

What all share (type): cell-based
For test [1], the system named is RAJI cells. Put plainly: JNG assay, co-culture with RAJI cells. The essentials:
(§1)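 Read-out is NFAT-driven GFP measured by flow cytometry after ~4–18 h co-culture of SAR-expressing JNG cells with target cells (E:T about 1:2). SARs were introduced by lentiviral spinfection and selected with puromycin or blasticidin when possible; scores (+/- to 5+ ≈ 5–50% GFP+) are relative to parental JNG cells.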

In test [2] the test system is L363 cells. Put plainly: JNG assay, co-culture with L363 cells. The conditions noted are these: co-culture with L363. The essentials: as §1
In test [3] the test system is HEL 92.1.7 cells. Description: JNG assay, co-culture with HEL 92.1.7 cells. The procedure: (§2) Cellular supernatant is collected and assayed for the induction of cytokines (e.g., IL2).
(§3) JNG (Jurkat cells expressing EGFP under an NFAT promoter) were infected with lentiviral vectors encoding different single chain and multi-chain SARs by spinfection in the presence of 8 µg/ml of Polybrene® (Sigma, Catalog no. H9268). The Jurkat-NFAT-GFP cells are engineered in such a way that the IL-2 promoter, which carries NFAT binding sites, is cloned upstream of the GFP gene. These cells have been used to study signaling via TCR and CAR. The different SARs were stably expressed in Jurkat NFAT-GFP cells by lentiviral mediated gene transfer, followed by selection with puromycin or blasticidin. No drug selection was used in case the construct lacked an antibiotic resistance gene. The SAR-expressing Jurkat-NFAT-GFP cells were cocultured with the target cells at E:T ratio of approximately 1:2 for approximately 4 hours to 18 hours. When the interaction between SIRs and their target antigen results in activation of the NFAT pathway, GFP expression is induced. […] GFP expression was monitored by FACS analysis. The Jurkat-NFAT-GFP (parental) cells were used as control. The structure of different constructs can be determined based on their names. […] The sequence of the other constructs in the table can be similarly determined from their names and by referring to the different Tables of this disclosure that provide the names and SEQ ID NO of the different modules. Alternatively, the composition and modular architecture of the different SAR constructs can be determined from their sequences by bioinformatics tools, including using nucleic acid and amino acids homology searches. […] The signs +/-, +, 2+ etc. after the name of the cell lines indicate the relative degree of positivity on the Jurkat-NFAT-GFP assay as measured by the % GFP positive cells after culture of the SAR expressing Jurkat-NFAT-GFP cells with that cell line above the % GFP cells observed in parental Jurkat NFAT-GFP cells serving as controls. […]

For test [4], the system named is U266 cells. Description: JNG NFAT-GFP induction on co-culture with U266.
For test [5], the system named is L428 cells. Put plainly: JNG assay, co-culture with L428 cells. The following applies: L428 cells (CD123+), only in the presence of SAR adaptor bc40-p26-CD123-cg06 (SEQ ID NO: 23120). The procedure:
as §2, §3

In test [6] the test system is Nalm6 cells. Description: JNG assay, co-culture with Nalm6 cells. The following applies: co-culture with Nalm6 cells. The essentials:
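Values are semi-quantitative grades of GFP induction, each step approximating 10% more GFP+ cells (5+ ≈50%) above parental reporter cells, measured by FACS after SAR-transduced JNG cells were cultured with targets at ~1:2 E:T for ~4–18 h.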

B1: 22149 (protein)
chain: MALPVTALLLPLALLLHAARPACEVQLLESGGGLIQPGGSLRLSCAASGFTFSSHAMTWVRQAPGKGLEWVSAISGSGDYTHYADSVKGRFTISRDNSKNTVYLQMNSLRAEDSAVYYCAKDEDGGSLLGHRGQGTLVTVSSGTGGGGSGGGGSGGGGSEFDVVMTQSPSSLSASVGDRVTITCMASEDIYIRLAWYQQKPGNAPKLLIYAATSLETGVPSRFSGSGSGTDFTLTISSLQPEDFATYYCQQYWSSPWTFGGGTKVEIKLEGQPKANPTVTLFPPSSEELQANKATLVCLISDFYPGAVTVAWKADGSPVKAGVETTKPSKQSNNKYAASSYLSLTPEQWKSHRSYSCQVTHEGSTVEKTVAPTECSGRADCGFTSESYQQGVLSATILYEILLGKATLYAVLVSALVLMAMVKRKDSRGRAKRSGSGATNFSLLKQAGDVEENPGPTSATMDWIWRILFLVGAATGAHSGPQVQLQESGGGLAQAGGSLRLSCAASGRTFSMGWFRQAPGKEREFVAAITYSGGSPYYASSVRGRFTISRDNAKNTVYLQMNSLKPEDTAVYYCAANPTYGSDWNAENWGQGTQVTVSSGSGGGGSGGGGSGGGGSFEQVQLQESGPGLVKPSQTLSLTCTVSGYSITSDYTWNWIRQPPGNGLEWIGYITYSGSTSYNPSLKSRVLISVDTSKNQVSLKLSSVTAADTAVYYCARLGRRYTMDYWGQGTTVTVSSTRASTKGPSVFPLAPSSKSTSGGTAALGCLVKDYFPEPVTVSWNSGALTSGVHTFPAVLQSSGLYSLSSVVTVPSSSLGTQTYICNVNHKPSNTKVDKRVEPKSCIPEDTFFPSPESSCDVKLVEKSFETDTNLNFQNLSVIGFRILLLKVAGFNLLMTLRLWSSRAKRSGSGVKQTLNFDLLKLAGDVESNPGPSRGHMTEYKPTVRLATRDDVPRAVRTLAAAFADYPATRHTVDPDRHIERVTELQELFLTRVGLDIGKVWVADDGAAVAVWTTPESVEAGAVFAEIGPRMAELSGSRLAAQQQMEGLLAPHRPKEPAWFLATVGVSPDHQGKGLGSAVVLPGVEAAERAGVPAFLETSAPRNLPFYERLGFTVTADVEVPEGPRTWCMTRKPGA
For the molecule B1, in test [1] (JNG cells expressing construct, co-culture with Raji), the “NFAT-GFP ASSAY: Raji” value is 3+ (refer to approximately 5%, 10%, 20%, 30%, 40% and 50% GFP positive cells). In addition, in test [2], the “NFAT-GFP ASSAY: L363” value is “+ (refer to approximately 5%, 10%, 20%, 30%, 40% and 50% GFP positive cells)”. The “NFAT-GFP ASSAY: HEL 92.1.7” value in test [3] (co-culture with HEL 92.1.7) was “+/- (refer to approximately 5%, 10%, 20%, 30%, 40% and 50% GFP positive cells)”. The “NFAT-GFP ASSAY: U266” value in test [4] was 3+ (refer to approximately 5%, 10%, 20%, 30%, 40% and 50% GFP positive cells).

B2: SEQ ID NO: 22292: D domain (Afo3) binding a p26 domain, attached to the N-terminus of the vL fragment of a hu-mROO5-1 based SIR (protein)
chain: MALPVTALLLPLALLLHAARPACMGSWFEFYDRLNAIDARLWALGGSEAELAAFEKEIAAFESELQAYKGKGNPEVENLRVHAAAIREWLQAYRHNGTGGGGSGGGGSGGGGSEFDIQMTQSPSSLSASVGDRVTITCKASDHINNWLAWYQQKPGQAPKLLIYGATTLETGVPSRFSGSGSGTDYTLTISSLQPEDFATYYCQQSWNTPWTFGQGTKLEIKRLEDLKNVFPPEVAVFEPSEAEISHTQKATLVCLATGFYPDHVELSWWVNGKEVHSGVCTDPQPLKEQPALNDSRYCLSSRLRVSATFWQNPRNHFRCQVQFYGLSENDEWTQDRAKPVTQIVSAEAWGRADCGFTSESYQQGVLSATILYEILLGKATLYAVLVSALVLMAMVKRKDSRGRAKRSGSGATNFSLLKQAGDVEENPGPTSMDWIWRILFLVGAATGAHSFEQVQLQQPGAELVKPGASVKMSCKASGYAFSSYWINWMKQKPGQGLEWIGQIYPGDGDTNYNGKFKGRATLTADTSSSTAYMQLSSLTSEDSAVYFCARSITTVVGCAMDYWGQGTSVTVSSTRIQNPDPAVYQLRDSKSSDKSVCLFTDFDSQTNVSQSKDSDVYITDKCVLDMRSMDFKSNSAVAWSNKSDFACANAFNNSIIPEDTFFPSPESSCDVKLVEKSFETDTNLNFQNLSVIGFRILLLKVAGFNLLMTLRLWSSRAKRSGSGVKQTLNFDLLKLAGDVESNPGPSRGHMTEYKPTVRLATRDDVPRAVRTLAAAFADYPATRHTVDPDRHIERVTELQELFLTRVGLDIGKVWVADDGAAVAVWTTPESVEAGAVFAEIGPRMAELSGSRLAAQQQMEGLLAPHRPKEPAWFLATVGVSPDHQGKGLGSAVVLPGVEAAERAGVPAFLETSAPRNLPFYERLGFTVTADVEVPEGPRTWCMTRKPGA
With B2, the GFP induction result in test [5] is “robust induction of GFP”.

B3: SEQ ID NO: 21975: bispecific SIR: MPL-175 scFv linked to hCD19-Bu12 scFv attached to hTCRα-CSDVP via MYC tag; hTCRβ-KACIAH carries a V5 tag (protein)
chain: MALPVTALLLPLALLLHAARPLEGKPIPNPLLGLDSTGSGEDLKNVFPPEVAVFEPSKAEIAHTQKATLVCLATGFYPDHVELSWWVNGKEVHSGVCTDPQPLKEQPALNDSRYCLSSRLRVSATFWQNPRNHFRCQVQFYGLSENDEWTQDRAKPVTQIVSAEAWGRADCGITSASYHQGVLSATILYEILLGKATLYAVLVSALVLMAMVKRKDSRGRAKRSGSGATNFSLLKQAGDVEENPGPTSMALPVTALLLPLALLLHAARPDQIVLTQSPAIMSASPGEKVTISCSASSSVSYMYWYQQKPGSSPKPWIYRTSNLASGVPARFSGSGSGTSYSLTISNMEAEDAAAYYCQQYHSYPTTFGGGTKLEVKGGGGSGGGGSGGGGSEVQLVESGGGLVQPKGSLKLSCAASGFSFNTYAMNWVRQAPGKGLEWIAHIRSKSNNFATYYADSVKDRFSISRDASENILFLQMNNLKTEDTAMYYCVRQGGDFPMDYWGQGTSVTVSSTREAAAKEIVLTQSPATLSLSPGERATLSCSASSSVSYMHWYQQKPGQAPRLLIYDTSKLASGIPARFSGSGSGTDFTLTISSLEPEDVAVYYCFQGSVYPFTFGQGTKLEIKRGGGGSGGGGSGGGGSQVQLQESGPGLVKPSQTLSLTCTVSGGSISTSGMGVGWIRQHPGKGLEWIGHIWWDDDKRYNPALKSRVTISVDTSKNQFSLKLSSVTAADTAVYYCARMELWSYYFDYWGQGTLVTVSSTREQKLISEEDGSGIQNPDPAVYQLRDSKSSDKSVCLFTDFDSQTNVSQSKDSDVYITDKCVLDMRSMDFKSNSAVAWSNKSDFACANAFNNSIIPEDTFFPSSDVPCDVKLVEKSFETDTNLNFQNLSVIGFRILLLKVAGFNLLMTLRLWSSRAKRSGSGVKQTLNFDLLKLAGDVESNPGPSRGHMTEYKPTVRLATRDDVPRAVRTLAAAFADYPATRHTVDPDRHIERVTELQELFLTRVGLDIGKVWVADDGAAVAVWTTPESVEAGAVFAEIGPRMAELSGSRLAAQQQMEGLLAPHRPKEPAWFLATVGVSPDHQGKGLGSAVVLPGVEAAERAGVPAFLETSAPRNLPFYERLGFTVTADVEVPEGPRTWCMTRKPGA
Regarding B3, the “GFP induction / activity” value in test [1] (co-culture with RAJI cells) and in test [6] was “only weak activity” throughout. The GFP induction entry in test [3] (co-culture with MPL expressing HEL 92.1.7 cells) is “marginal GFP induction”.
